Experimental findings from the supplement of paper PMC10567573 are described below.

± gives the standard deviation.

This series in a line: protein stability index of a GFP-peptide fusion (GPS, HEK-293T) (PSI 1-6); higher = more stable. The settings on record: c terminus: a fixed tail appended.
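Note: 24-mer peptide tiles fused after GFP, lentivirally expressed, FACS-sorted into six equal bins by GFP/DsRed ratio, decoded by Illumina sequencing, PSI is the read-weighted mean bin number.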

For RSWMFRRGPLNSDRSDYFAAWGAR [TRIM43], the protein stability index by setting is: (treatment: DMSO) 2.5 ± 0.14; (treatment: MLN4924 1 uM, 8 h) 2.62 ± 0.47.

LDVFGRGDNISDVSKFLEDDKWME [LUC7L3]: the protein stability index reads like this: (treatment: DMSO) 4.72 ± 0.27; (treatment: MLN4924 1 uM, 8 h) 4.37 ± 0.14.

Turning to MSFPHFGHPYRGASQFLASASSST [IRX6], the protein stability index was 3.25 ± 0.21 (treatment: DMSO) and 3.13 ± 0.25 (treatment: MLN4924 1 uM, 8 h).

With QTAVQFQQYAAQQYPGNYEQQQIL [ACBD3], the protein stability index came out at 3.71 ± 0.22 (treatment: DMSO) and 3.61 ± 0.23 (treatment: MLN4924 1 uM, 8 h).

For the sequence MAAPEERDLTQEQTEKLLQFQDLT [FAF2], the protein stability index by setting is: (treatment: DMSO) 5.13 ± 0.29; (treatment: MLN4924 1 uM, 8 h) 5.16 ± 0.2.

For the sequence VGKTRLICARACNTTLTQYQLLAT [RHOBTB1], the protein stability index reads like this: (treatment: DMSO) 2.18 ± 0.35; (treatment: MLN4924 1 uM, 8 h) 2.21 ± 0.12.

For the sequence PGRDRVGREDEDGWETRGDRKARK [HES6], the protein stability index was determined as 5.49 ± 0.26 (treatment: DMSO) and 5.48 ± 0.17 (treatment: MLN4924 1 uM, 8 h).

As for GPPPAQGSPGDGGLQDQVGAWGLP [EMID1], the protein stability index worked out at 5.02 ± 0.12 (treatment: DMSO) and 5.03 ± 0.4 (treatment: MLN4924 1 uM, 8 h).

On to PSVPPTIKEEENSEEELAAATTSK [MYBL2], for which the protein stability index was determined as 5.52 ± 0.53 (treatment: DMSO) and 5.56 ± 0.4 (treatment: MLN4924 1 uM, 8 h).

Take ILKRRSDEALERCQILELLNAELE [CCDC89]: the protein stability index reads like this: (treatment: DMSO) 2.68 ± 0.34; (treatment: MLN4924 1 uM, 8 h) 3 ± 0.42.

For the sequence KCLYYLYATLDLNAVKYVSNIKFC [PDS5B], the protein stability index runs as follows: (treatment: DMSO) 3.06 ± 0.41; (treatment: MLN4924 1 uM, 8 h) 2.75 ± 0.78.

PHYICTLKQPHLLLEKYSYYLISG [PNLIPRP1]: the protein stability index is 2.78 ± 0.81 (treatment: DMSO) and 2.74 ± 0.69 (treatment: MLN4924 1 uM, 8 h).

Sequence AAWGARVFSFGKHYWELDVDNSCD [TRIM43] had a protein stability index (treatment: DMSO) of 2.25 ± 0.44 and a protein stability index (treatment: MLN4924 1 uM, 8 h) of 2.28 ± 0.3.

YHNAGTQTVPKRIPERLSIFCRDT [IQUB]: the protein stability index turned out to be 2.51 ± 0.28 (treatment: DMSO) and 3.04 ± 0.8 (treatment: MLN4924 1 uM, 8 h).

Take TKCEYMLNSMPKRLCLVCGDIASG [ESRRG]: the protein stability index is 2.32 ± 0.29 (treatment: DMSO) and 2.13 ± 0.12 (treatment: MLN4924 1 uM, 8 h).

The sequence VVYVKHQAQIDQYLGLVRTHINAV [RTN1] gave a protein stability index (treatment: DMSO) of 2.22 ± 0.82 and a protein stability index (treatment: MLN4924 1 uM, 8 h) of 2.52 ± 0.48.

Take REALVLRSVRVRLLLSFWKETDPL [PLD5]: the protein stability index by setting is: (treatment: DMSO) 2.58 ± 1.1; (treatment: MLN4924 1 uM, 8 h) 2.38 ± 0.39.

On to EKKDDENIPMETEETHLEETTESQ [SMARCE1], for which the protein stability index by setting is: (treatment: DMSO) 5.58 ± 0.43; (treatment: MLN4924 1 uM, 8 h) 5.39 ± 0.57.

Regarding FAAPSPATTASPAKVDSSGVIDLF [SNAP91], the protein stability index reads like this: (treatment: DMSO) 2.93 ± 0.38; (treatment: MLN4924 1 uM, 8 h) 3.25 ± 0.52.

For the sequence SQMPPPAGGTSDDPEPSGPHLPRV [SCNN1D], the protein stability index reads like this: (treatment: DMSO) 5.23 ± 0.31; (treatment: MLN4924 1 uM, 8 h) 5.43 ± 0.12.

Regarding RFHGRLLFLKDVLGDEICCWSFYG [KCTD13], the protein stability index reads like this: (treatment: DMSO) 2.49 ± 0.38; (treatment: MLN4924 1 uM, 8 h) 2.56 ± 0.71.

For NEYVAIKLEPIKSRAPQLHLEYRF [CSNK1G1], the protein stability index is 2.31 ± 0.3 (treatment: DMSO) and 2.53 ± 0.36 (treatment: MLN4924 1 uM, 8 h).

VTVPSMLSRLLSRKRAVPCGACLT [OR3A1] registered a protein stability index (treatment: DMSO) of 2.39 ± 0.38 and a protein stability index (treatment: MLN4924 1 uM, 8 h) of 2.25 ± 0.29.

As to GWETRGDRKARKPLVEKKRRARIN [HES6], the protein stability index runs as follows: (treatment: DMSO) 4.31 ± 0.36; (treatment: MLN4924 1 uM, 8 h) 4.54 ± 0.12.

On to GEQVGRGPGFHAGTSALWRHLRSA [ZBED3], for which the protein stability index runs as follows: (treatment: DMSO) 3.35 ± 0.13; (treatment: MLN4924 1 uM, 8 h) 3.27 ± 0.27.

As to ERPPPPPSDDLTLLESSSSYKNLT [MCOLN1], the protein stability index turned out to be 5 ± 0.21 (treatment: DMSO) and 4.93 ± 0.21 (treatment: MLN4924 1 uM, 8 h).

Take HIRHLGWNPDARYSEHFLQEAKLL [GLT8D2]: the protein stability index is, setting by setting: (treatment: DMSO) 2.49 ± 0.17; (treatment: MLN4924 1 uM, 8 h) 2.79 ± 0.4.

For the sequence ASDLSSEEGWRLFKIDKEYLLKMA [SAT1], the protein stability index was 2.42 ± 0.17 (treatment: DMSO) and 2.6 ± 0.33 (treatment: MLN4924 1 uM, 8 h).

On to LPHGVNFQDAIFPDTQENRRMFSS [CCDC3], for which the protein stability index reads like this: (treatment: DMSO) 3.91 ± 0.18; (treatment: MLN4924 1 uM, 8 h) 3.92 ± 0.097.

For the sequence AGGDATENFEDVGHSTDAREMSKT [CYB5A], the protein stability index is, setting by setting: (treatment: DMSO) 5.44 ± 0.28; (treatment: MLN4924 1 uM, 8 h) 5.3 ± 0.15.

In the case of INQEELRALEEVEMKLQKNFLTQR [C10orf62], the protein stability index (treatment: DMSO) is 3.66 ± 0.39 and the protein stability index (treatment: MLN4924 1 uM, 8 h) stood at 3.83 ± 0.34.

As for PSLGDSLESIPSLSQSPEPGRRGD [RTN2], the protein stability index is, setting by setting: (treatment: DMSO) 5.32 ± 0.45; (treatment: MLN4924 1 uM, 8 h) 5.48 ± 0.12.

Regarding GTILNYLRDGAVPLPESRREIEEL [KCTD10], the protein stability index is 3.98 ± 0.19 (treatment: DMSO) and 4.15 ± 0.073 (treatment: MLN4924 1 uM, 8 h).

On to CQDQNVPVENFFVKCNGALINTSD [SDE2], for which the protein stability index reads like this: (treatment: DMSO) 3.3 ± 0.23; (treatment: MLN4924 1 uM, 8 h) 3.27 ± 0.47.

For the sequence FVAFAAKLWSFFIYLLRRQIRTVI [CTDNEP1], the protein stability index runs as follows: (treatment: DMSO) 3.29 ± 0.16; (treatment: MLN4924 1 uM, 8 h) 3.3 ± 0.31.

For the sequence REWYYGNVTRHQAECALNERGVEG [NCK2], the protein stability index was 3.33 ± 0.12 (treatment: DMSO) and 3.68 ± 0.16 (treatment: MLN4924 1 uM, 8 h).
